Measurements taken from patent US20100184658A1 (published 2010).

Columns and labels:
Test in all cases: cell-based or functional assay
PDK1 = target: T1, PDK1 (human (printed as (h)), UniProt O15530 1-556, limits assumed)
T1 sequence (looked up): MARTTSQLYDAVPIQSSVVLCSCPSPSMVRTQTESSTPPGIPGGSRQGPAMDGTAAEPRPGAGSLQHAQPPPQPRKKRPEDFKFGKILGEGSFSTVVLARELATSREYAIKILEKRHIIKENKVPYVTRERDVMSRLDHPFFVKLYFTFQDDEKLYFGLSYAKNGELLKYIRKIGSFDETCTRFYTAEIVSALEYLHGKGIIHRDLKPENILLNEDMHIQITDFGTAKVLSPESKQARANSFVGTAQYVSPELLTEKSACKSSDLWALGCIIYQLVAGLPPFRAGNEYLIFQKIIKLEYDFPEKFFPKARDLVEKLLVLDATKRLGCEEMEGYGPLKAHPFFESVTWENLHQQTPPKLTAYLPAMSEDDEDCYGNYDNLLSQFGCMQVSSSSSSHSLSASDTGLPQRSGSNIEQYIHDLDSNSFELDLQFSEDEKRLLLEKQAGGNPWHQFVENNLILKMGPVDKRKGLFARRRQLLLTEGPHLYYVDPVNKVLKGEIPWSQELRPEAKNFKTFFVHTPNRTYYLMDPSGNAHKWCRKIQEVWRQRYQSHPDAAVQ

MAP2K1 (MEK1) = MAP2K1 (MEK1) (UniProt Q02750 1-393, limits assumed)
[1] = target: T2, NEK1 NIMA (never in mitosis gene a)-related kinase 1 (UniProt Q96PY6 1-505, limits assumed)
T2 sequence (looked up): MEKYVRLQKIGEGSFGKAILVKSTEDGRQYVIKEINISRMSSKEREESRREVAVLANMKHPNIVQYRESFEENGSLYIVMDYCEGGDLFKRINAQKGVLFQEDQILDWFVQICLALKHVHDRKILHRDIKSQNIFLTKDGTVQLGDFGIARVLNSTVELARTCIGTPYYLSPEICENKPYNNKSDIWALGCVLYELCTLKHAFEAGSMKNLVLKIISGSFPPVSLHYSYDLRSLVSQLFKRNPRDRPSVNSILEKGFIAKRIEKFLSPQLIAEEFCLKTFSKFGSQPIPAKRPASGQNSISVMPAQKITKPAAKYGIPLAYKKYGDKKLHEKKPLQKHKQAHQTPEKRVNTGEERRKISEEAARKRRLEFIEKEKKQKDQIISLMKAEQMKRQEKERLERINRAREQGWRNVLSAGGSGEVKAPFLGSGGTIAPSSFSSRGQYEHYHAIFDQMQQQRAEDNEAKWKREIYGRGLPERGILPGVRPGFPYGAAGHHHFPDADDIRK

PRKCI (PKC iota) = target: T3, PRKCI (PKC iota) (UniProt P41743 1-596, limits assumed)
T3 sequence (looked up): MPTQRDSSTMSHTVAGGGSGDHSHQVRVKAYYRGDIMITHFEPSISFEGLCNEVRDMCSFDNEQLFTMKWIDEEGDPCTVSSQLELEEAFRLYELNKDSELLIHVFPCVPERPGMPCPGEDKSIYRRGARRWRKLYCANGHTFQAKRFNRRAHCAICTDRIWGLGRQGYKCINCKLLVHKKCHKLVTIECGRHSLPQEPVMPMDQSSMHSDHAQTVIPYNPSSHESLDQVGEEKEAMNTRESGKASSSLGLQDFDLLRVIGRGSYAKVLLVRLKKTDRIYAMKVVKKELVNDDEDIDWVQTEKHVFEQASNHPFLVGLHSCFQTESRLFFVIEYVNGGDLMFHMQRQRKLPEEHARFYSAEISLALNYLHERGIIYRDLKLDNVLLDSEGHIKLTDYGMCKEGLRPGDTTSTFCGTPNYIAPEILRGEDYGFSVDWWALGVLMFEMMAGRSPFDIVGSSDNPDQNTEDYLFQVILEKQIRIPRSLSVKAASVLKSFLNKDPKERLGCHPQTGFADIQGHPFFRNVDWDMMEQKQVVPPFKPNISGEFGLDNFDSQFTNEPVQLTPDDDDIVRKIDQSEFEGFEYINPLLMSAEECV

[2] = target: RPS6KB1 (p70S6K) Ribosomal protein S6 kinase, 70 kDa, polypeptide 1 (human (printed as (h)), UniProt P23443 1-421, limits assumed)
CAMK2D (CaMKII delta) = CAMK2D (CaMKII delta) (UniProt Q13557 1-499, limits assumed)
MERTK (cMER) = target: T4, MERTK (cMER) (UniProt Q12866 578-872, limits assumed)
T4 sequence (looked up): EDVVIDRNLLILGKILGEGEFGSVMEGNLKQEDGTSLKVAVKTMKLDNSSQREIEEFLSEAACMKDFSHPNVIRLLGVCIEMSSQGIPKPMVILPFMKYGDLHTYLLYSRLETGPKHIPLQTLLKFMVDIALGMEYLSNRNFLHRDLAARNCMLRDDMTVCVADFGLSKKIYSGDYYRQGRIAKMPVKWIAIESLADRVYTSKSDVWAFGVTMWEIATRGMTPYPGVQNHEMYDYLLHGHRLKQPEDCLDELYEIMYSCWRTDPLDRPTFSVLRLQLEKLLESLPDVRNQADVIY

CLK3 = CLK3 (UniProt P49761 1-490, limits assumed)
[3] = target: T5, STK4 (MST1) Serine/threonine kinase 4 (UniProt Q13043 1-487, limits assumed)
T5 sequence (looked up): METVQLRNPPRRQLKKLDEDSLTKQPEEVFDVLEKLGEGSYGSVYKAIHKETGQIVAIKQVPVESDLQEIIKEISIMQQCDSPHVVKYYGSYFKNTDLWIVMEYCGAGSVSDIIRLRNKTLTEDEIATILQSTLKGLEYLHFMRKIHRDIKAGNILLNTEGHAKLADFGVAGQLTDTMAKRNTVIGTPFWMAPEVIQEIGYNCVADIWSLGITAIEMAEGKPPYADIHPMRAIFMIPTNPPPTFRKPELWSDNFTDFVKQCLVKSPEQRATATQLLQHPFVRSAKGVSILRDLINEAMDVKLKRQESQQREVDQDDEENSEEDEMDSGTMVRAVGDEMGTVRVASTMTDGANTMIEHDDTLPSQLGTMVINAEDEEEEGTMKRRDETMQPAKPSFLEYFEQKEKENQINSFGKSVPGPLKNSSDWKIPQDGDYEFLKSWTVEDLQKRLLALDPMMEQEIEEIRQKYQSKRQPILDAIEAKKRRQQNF
Note: test concentration or dose not given here.

RPS6KB1 (p70S6K) Ribosomal protein S6 kinase, 70 kDa, polypeptide 1 (human (printed as (h)), UniProt P23443 1-421, limits assumed), sequence (P23443 1-421 limits assumed): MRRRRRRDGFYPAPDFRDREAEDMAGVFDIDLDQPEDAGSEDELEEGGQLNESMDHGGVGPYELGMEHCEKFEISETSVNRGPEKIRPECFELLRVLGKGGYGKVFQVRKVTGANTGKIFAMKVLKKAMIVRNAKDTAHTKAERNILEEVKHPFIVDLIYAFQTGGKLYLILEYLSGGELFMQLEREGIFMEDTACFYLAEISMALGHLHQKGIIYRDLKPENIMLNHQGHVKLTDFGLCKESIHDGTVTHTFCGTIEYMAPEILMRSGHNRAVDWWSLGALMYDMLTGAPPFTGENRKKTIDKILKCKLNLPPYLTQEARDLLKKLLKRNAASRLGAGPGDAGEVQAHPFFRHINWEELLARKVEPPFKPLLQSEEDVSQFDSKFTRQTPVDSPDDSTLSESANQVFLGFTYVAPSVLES
CAMK2D (CaMKII delta), sequence (Q13557 whole entry, stated change not applied): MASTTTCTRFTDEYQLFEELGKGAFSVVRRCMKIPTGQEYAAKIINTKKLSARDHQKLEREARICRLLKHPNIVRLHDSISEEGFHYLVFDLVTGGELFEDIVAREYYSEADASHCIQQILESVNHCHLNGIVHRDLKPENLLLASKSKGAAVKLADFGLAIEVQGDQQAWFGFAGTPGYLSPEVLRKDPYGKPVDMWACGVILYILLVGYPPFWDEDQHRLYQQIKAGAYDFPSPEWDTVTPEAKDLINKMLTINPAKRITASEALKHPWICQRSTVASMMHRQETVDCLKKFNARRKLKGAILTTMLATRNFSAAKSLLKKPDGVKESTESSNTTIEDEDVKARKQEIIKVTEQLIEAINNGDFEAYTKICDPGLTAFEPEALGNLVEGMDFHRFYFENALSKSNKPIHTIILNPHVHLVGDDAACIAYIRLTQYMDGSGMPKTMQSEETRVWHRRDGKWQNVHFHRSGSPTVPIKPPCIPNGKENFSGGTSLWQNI
CLK3, sequence (P49761 whole entry): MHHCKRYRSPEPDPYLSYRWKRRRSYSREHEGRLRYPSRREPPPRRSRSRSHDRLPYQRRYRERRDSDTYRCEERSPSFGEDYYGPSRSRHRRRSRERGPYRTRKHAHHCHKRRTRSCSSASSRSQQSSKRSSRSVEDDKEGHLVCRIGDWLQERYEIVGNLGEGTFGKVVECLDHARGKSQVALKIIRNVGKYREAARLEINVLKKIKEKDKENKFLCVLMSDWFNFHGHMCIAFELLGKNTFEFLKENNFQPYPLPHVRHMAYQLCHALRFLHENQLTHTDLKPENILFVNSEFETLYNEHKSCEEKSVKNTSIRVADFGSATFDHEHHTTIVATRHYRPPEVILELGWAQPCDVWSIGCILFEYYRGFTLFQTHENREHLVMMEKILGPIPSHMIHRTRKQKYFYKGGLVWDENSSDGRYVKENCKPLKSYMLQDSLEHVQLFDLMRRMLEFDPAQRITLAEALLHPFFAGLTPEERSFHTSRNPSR

B1: D3 peptide (peptide)
peptide: SGRPPMIVWFNRPFLIAVSHTHGQTILFMAKVINPVGA
How did the “% Inhibition mean” value (PDK1) turn out when B1 was run?
Its value is 64%.

And the “% Inhibition mean” value (MAP2K1 (MEK1))?
The value was 94%.

What about the “% Inhibition mean” value [1] of the same binder?
The value was 84%.

What about the “% Inhibition mean” value (PRKCI (PKC iota)) of the same binder?
Its value is 48.9%.

What about the “% Inhibition mean” value [2] of the same binder?
The value was 100%.

What about the “% Inhibition mean” value (CAMK2D (CaMKII delta)) of the same binder?
The value was 72.5%.

And the “% Inhibition mean” value (MERTK (cMER))?
Its value is 79.5%.

What about the “% Inhibition mean” value (CLK3) of the same binder?
Its value is 46%.

What about the “% Inhibition mean” value [3] of the same binder?
The value was 99%.
